Measured values as given in US20250282868A1 (ITEOS BELGIUM, published 2025).
Positions count from the first letter of the chain named.

B1: EOS006166 (antibody, V domains shown)
VH: EVQLVESGGGLVQPGRSLRLSCTASGFTFGDYAMSWFRQAPGKGLEWVGFIGSKAYGGTTEYTASVKGRFTISRDGSKSIAYLQMNSLKTEDTAVYYCARGKRYSYGYWHPAFDVWGQGTMVTVSS
VL: DIQMTQSPSSLSASVGDRVTITCQASQDITNYLNWYQQKPGKAPKLLIYDASNLETGVPSRFSGSGSGTDFTFTISSLQPEDIATYYCQQYDSYLTFGGGTKVEIK
B2: EOS006170 (antibody, V domains shown)
VH: QVQLQESGPGLVKPSGTLSLTCAVSGGSISSSNWWSWVRQPPGKGLEWIGEIYHSGSTNYNPSLKSRVTISVDKSKNQFSLKLSSVTAADTAVYYCARDTKYQAGMDVWGQGTTVTVSS
VL: B1 VL with T30S, E55A, D92V, S93V, Y94F, L95P
B3: EOS006177 (antibody, V domains shown)
VH: B2 VH with S31D, N33A, S55D, G56A, S57D, Q103W, A104G
VL: B1 VL with T30S, E55A, D92V, S93E, Y94A, L95P
B4: EOS006173 (antibody, V domains shown)
VH: B1 VH with Y104R, S105D
VL: B1 VL with Q90E, S93Q
notes: also called EOS061730
B5: EOS006174 (antibody, V domains shown)
VH: B1 VH with D31E, A33T, G57A, Y108G, H110V
VL: B1 VL with Q90E, T96A
B6: EOS006164 (antibody, V domains shown)
VH: B1 VH with G30D, A33T, G57S, G58A, G107T, H110T
VL: B1 VL with Q90E, L95I
B7: EOS006180 (antibody, V domains shown)
VH: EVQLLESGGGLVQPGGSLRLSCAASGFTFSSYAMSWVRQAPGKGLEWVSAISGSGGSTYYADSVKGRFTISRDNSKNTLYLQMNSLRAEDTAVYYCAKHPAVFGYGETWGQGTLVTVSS
VL: EIVLTQSPGTLSLSPGERATLSCRASQSVSSSFLAWYQQKPGQAPRLLIYGASSRATGIPDRFSGSGSGTDFTLTISRLEPEDFAVYYCQQYYGLPITFGGGTKVEIK

Target: T1, human TREM2 (human, UniProt Q9NZC2 19-230)
T1 sequence: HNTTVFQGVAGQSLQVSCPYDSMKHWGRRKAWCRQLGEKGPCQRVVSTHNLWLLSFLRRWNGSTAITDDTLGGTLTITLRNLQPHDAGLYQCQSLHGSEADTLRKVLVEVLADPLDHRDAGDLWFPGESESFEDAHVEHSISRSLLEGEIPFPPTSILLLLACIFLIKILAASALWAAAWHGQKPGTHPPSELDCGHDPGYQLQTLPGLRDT
Experiment: cell-based or functional assay

Binder | Stabilization ratio (Mean of 2 replicates) [ratio]
B1 | 0.49
B2 | 0.57
B3 | 0.44
B4 | 0.41
B5 | 0.46
B6 | 0.55

Target: T1, human TREM2
Experiment: cell-based or functional assay
Remark: another data set of the same source

Binder | Fold over isotype control at 66 nM [fold] | pSYK/TotSYK EC50 (nM)
B1 | 1.75 | –
B2 | 1.31 | –
B3 | 0.95 | –
B4 | 1.34 | 1.08
B5 | 0.897 | –
B6 | 1.16 | –

Target: T1, human TREM2
Experiment: flow cytometry, M2a-like macrophages
Procedure: (§1) M2a-like macrophages were produced in vitro from monocytes of healthy donors. Briefly, after PBMCs isolation from peripheral blood using Lymphoprep™ gradient, CD14+ cells were purified and seeded in presence of MCSF 50 ng/ml for 6 days. Macrophages were then cultured with IL-13 and IL-4 at a concentration of 20 ng/ml for two additional days and then used for a cell-based binding assay.
(§2) M2a-like macrophages were incubated with anti-TREM2 antibodies (dose-response curve with 11 concentrations from 10 μg/ml to 0.0001 μg/ml) for 30 min at 4° C. After washing, bound antibodies were detected with a secondary anti-human IgG Fc PE-labelled for 30 min at 4° C. Fluorescence intensity was measured by flow cytometry. Equilibrium dissociation constant (kD) was then calculated for each antibody using median MFI normalized over isotype control.

Binder | Fold over isotype [fold]
B1 | 5.9
B2 | 1.1
B3 | 17.3
B4 | 8.2
B5 | 14.9
B6 | 12.9

Target: T1, human TREM2
Experiment: flow cytometry, THP-1 WT cells, 10 ug/ml
Procedure: (§3) In order to test specificity of selected antibodies to TREM2, binding was tested by flow cytometry on THP-1 TREM2 KO (clone, produced using CRISPR technology in house) and on THP-1 WT. Cells were incubated with selected anti-TREM2 antibodies (final concentration of 10 μg/ml) for 30 min at 4° C. After washing, bound antibodies were detected with a secondary anti-human IgG Fc PE-labelled for 30 min at 4° C. Fluorescence intensity was measured by flow cytometry.

Binder | Fold over isotype control THP1 WT [fold]
B1 | 7.3
B2 | 2.3
B3 | 3.3
B4 | 3.3
B5 | 4
B6 | 3.7

Target: T2, cynomolgus TREM2 (cynomolgus, UniProt A0A2K5UY34 49-260)
T2 construct: also called cynoTREM2; cTREM2
T2 sequence: T1 sequence with A10E, W60R, L89F, F125V, I157V, L193P, Y201H
Experiment: MFI on CHO cells over-expressing cynoTREM2-DAP12
Procedure: (§4) Cross-reactivity of anti-TREM2 antibodies to cynomolgus TREM2 (cynoTREM2) was assessed using CHO over-expressing cynoTREM2-DAP12 (Table 22). Benchmark antibodies, AB52 and PN-37012, were examined for comparison.

Binder | Binding to CHO-cTREM2 MFI [MFI]
B1 | 25500
B2 | 1650
B3 | 19600
B4 | 14000
B5 | 15700
B6 | 14200

Target: T1, human TREM2
Experiment: flow cytometry, M2a-like macrophages, dose-response
Procedure: as §1, §2

Binder | Kd [nM]
B1 | 1.21
B2 | 8.2
B3 | 0.19
B4 | 0.3
B5 | 0.09
B6 | 0.32

Target: T3, mouse TREM2 (mouse, UniProt Q99NH8 19-227)
T3 construct: whole, on cells
T3 sequence (looked up): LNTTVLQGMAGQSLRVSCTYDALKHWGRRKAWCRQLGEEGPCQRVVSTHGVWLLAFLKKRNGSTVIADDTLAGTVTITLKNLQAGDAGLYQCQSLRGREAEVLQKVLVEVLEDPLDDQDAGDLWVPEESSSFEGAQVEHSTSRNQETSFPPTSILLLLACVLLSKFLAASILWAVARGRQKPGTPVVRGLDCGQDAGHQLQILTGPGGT
Experiment: MFI on CT26 cells over-expressing mouse TREM2 and DAP12
Procedure: (§5) Cross-reactivity to mouse TREM2 was assessed using CT26 cells over-expressing mouse TREM2 and DAP12 (Table 23). Eight anti-TREM2 antibodies and both benchmark antibodies were considered cross-reactive to mouse TREM2 (MFI higher than isotype control and fold change of CT26-TREM2 over the CT26 Empty Vector higher than 5). The remaining anti-TREM2 antibodies were considered as being low to not cross-reactive (fold change less than 5). EOS006171 was not tested due to clear non-cross-reactivity preliminary data by octet (data not shown).

Binder | Binding to CT26-TREM2 MFI [MFI]
B7 | 1890
B2 | 322
B3 | 8680
B4 | 3940
B5 | 10100
B6 | 6540

Target: T1, human TREM2
Experiment: flow cytometry, THP-1 WT vs THP-1 TREM2 KO cells, 10 ug/ml
Procedure: as §3

Binder | MFI Fold change (THP-1 WT over THP-1 TREM2 KO) [fold]
B1 | 1.8
B2 | 3.2
B3 | 6.8
B4 | 3.3
B5 | 5.1
B6 | 4.3

Target: T2, cynomolgus TREM2
Experiment: MFI on CHO cells over-expressing cynoTREM2-DAP12 vs CHO empty vector
Procedure: as §4

Binder | MFI Fold change (CHO-cTREM2 over CHO-EV) [fold]
B1 | 602
B2 | 42.8
B3 | 355
B4 | 329
B5 | 323
B6 | 277

Target: T3, mouse TREM2
Experiment: MFI on CT26 cells over-expressing mouse TREM2 and DAP12 vs CT26 empty vector
Procedure: as §5

Binder | MFI Fold change (CT26-TREM2 over CT26-EV) [fold]
B7 | 1.8
B2 | 1
B3 | 21.4
B4 | 11
B5 | 34.3
B6 | 21.4

Target: T3, mouse TREM2
Experiment: MFI on CT26 cells over-expressing mouse TREM2 and DAP12; column 'Considered cross-reactive'
Procedure: as §5

Binder | binding result
B7 | no binding (tested: fold change less than 5)
B2 | no binding (tested: fold change less than 5)

Target: T1, human TREM2
Experiment: flow cytometry, competition with LDL-Alexafluor-488 on CHO cells overexpressing human TREM2/DAP12
Procedure: Exemplary anti-TREM2 antibodies were tested in order to characterize their ability to enter in competition with TREM2 ligand, LDL, on CHO overexpressing human TREM2/DAP12. Antibodies (dose response curves from 66.65 nM to 0.07 nM) were incubated for 30 min with cells in a soluble fashion, followed by an incubation with LDL coupled with Alexafluor-488 (at 1 μg/mL final) for 30 min. Finally, after 2 washes, cells were acquired on flow cytometer. The median MFI of Alexafluor-488 was used to plot the graphs. Benchmark antibody MOR044746 was used as positive control.

Binder | IC50 [nM]
B1 | 0.865
B3 | 0.195
B4 | 0.145
B5 | 0.3
B6 | 0.265
